Experimental data published in patent publication US20150344570A1 (published 2015).

T1: FcγRIIa R (human, UniProt P12318 34-217)
T1 construct: extracellular domain; also called FcgRIIa R type; 2aR; not shown: His tag at the C terminus
T1 sequence (looked up): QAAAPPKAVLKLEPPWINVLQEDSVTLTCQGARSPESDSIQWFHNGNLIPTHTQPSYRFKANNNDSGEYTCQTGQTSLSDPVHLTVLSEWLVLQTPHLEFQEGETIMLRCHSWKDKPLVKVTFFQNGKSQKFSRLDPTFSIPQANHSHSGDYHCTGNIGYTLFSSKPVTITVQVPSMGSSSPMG

T2: FcγRIIb (human, UniProt P31994 43-217)
T2 construct: extracellular domain; also called FcgRIIb; 2b; not shown: His tag at the C terminus
T2 sequence (looked up): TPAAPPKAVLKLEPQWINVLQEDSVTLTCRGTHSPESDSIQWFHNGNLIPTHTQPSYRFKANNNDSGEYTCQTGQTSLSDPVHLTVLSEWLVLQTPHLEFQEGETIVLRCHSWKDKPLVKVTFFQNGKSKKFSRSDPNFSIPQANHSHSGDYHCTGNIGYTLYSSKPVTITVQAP

B1: GpH7-A5/GpH7-B3 variant H268_09D/GpL16-k0 (antibody, human IgG1, kappa)
heavy 1: not shown
heavy 2: not shown
light: DIVMTQSPLSLPVTPGEPASISCQASESLVHSNRNTYLHWYLQKPGQSPQLLIYKVSNRFSGVPDRFSGSGSGTDFTLKISRVEAEDVGVYYCSQNTHVPPTFGQGTKVEIERTVAAPSVFIFPPSDEQLKSGTASVVCLLNNFYPREAKVQWKVDNALQSGNSQESVTEQDSKDSTYSLSSTLTLSKADYEKHKVYACEVTHQGLSSPVTKSFNRGEC
notes: Heterodimerized anti-glypican-3 IgG1; mutation in the GpH7-B3 chain only; also called He Ab
B2: GpH7-A5/GpH7-B3 variant S267_19Q/GpL16-k0 (antibody, human IgG1, kappa)
heavy 1: not shown
heavy 2: not shown
light: B1 light
notes: as for B1
B3: GpH7-A5/GpH7-B3 variant K326_09D/GpL16-k0 (antibody, human IgG1, kappa)
heavy 1: not shown
heavy 2: not shown
light: B1 light
notes: as for B1
B4: GpH7-A5/GpH7-B3 variant V266_06M/GpL16-k0 (antibody, human IgG1, kappa)
heavy 1: not shown
heavy 2: not shown
light: B1 light
notes: as for B1
B5: GpH7-A5/GpH7-B3 variant P238_04F/GpL16-k0 (antibody, human IgG1, kappa)
heavy 1: not shown
heavy 2: not shown
light: B1 light
notes: as for B1
B6: GpH7-A5/GpH7-B3 variant L328_04F/GpL16-k0 (antibody, human IgG1, kappa)
heavy 1: not shown
heavy 2: not shown
light: B1 light
notes: as for B1
B7: GpH7-A5/GpH7-B3 variant S267_04F/GpL16-k0 (antibody, human IgG1, kappa)
heavy 1: not shown
heavy 2: not shown
light: B1 light
notes: as for B1
B8: GpH7-A5/GpH7-B3 variant K326_10E/GpL16-k0 (antibody, human IgG1, kappa)
heavy 1: not shown
heavy 2: not shown
light: B1 light
notes: as for B1
B9: GpH7-A5/GpH7-B3 variant P238_08L/GpL16-k0 (antibody, human IgG1, kappa)
heavy 1: not shown
heavy 2: not shown
light: B1 light
notes: as for B1
B10: GpH7-A5/GpH7-B3 variant N325_08L/GpL16-k0 (antibody, human IgG1, kappa)
heavy 1: not shown
heavy 2: not shown
light: B1 light
notes: as for B1
B11: GpH7-A5/GpH7-B3 variant V266_07I/GpL16-k0 (antibody, human IgG1, kappa)
heavy 1: not shown
heavy 2: not shown
light: B1 light
notes: as for B1
B12: GpH7-A5/GpH7-B3 variant L328_10E/GpL16-k0 (antibody, human IgG1, kappa)
heavy 1: not shown
heavy 2: not shown
light: B1 light
notes: as for B1
B13: GpH7-A5/GpH7-B3 variant S267_14T/GpL16-k0 (antibody, human IgG1, kappa)
heavy 1: not shown
heavy 2: not shown
light: B1 light
notes: as for B1
B14: GpH7-A5/GpH7-B3 variant L328_11K/GpL16-k0 (antibody, human IgG1, kappa)
heavy 1: not shown
heavy 2: not shown
light: B1 light
notes: as for B1
B15: GpH7-A5/GpH7-B3 variant S267_07I/GpL16-k0 (antibody, human IgG1, kappa)
heavy 1: not shown
heavy 2: not shown
light: B1 light
notes: as for B1
B16: GpH7-A5/GpH7-B3 variant S239_10E/GpL16-k0 (antibody, human IgG1, kappa)
heavy 1: not shown
heavy 2: not shown
light: B1 light
notes: as for B1
B17: GpH7-A5/GpH7-B3 variant S267_03V/GpL16-k0 (antibody, human IgG1, kappa)
heavy 1: not shown
heavy 2: not shown
light: B1 light
notes: as for B1
B18: GpH7-A5/GpH7-B3 variant L328_07I/GpL16-k0 (antibody, human IgG1, kappa)
heavy 1: not shown
heavy 2: not shown
light: B1 light
notes: as for B1
B19: GpH7-A5/GpH7-B3 variant S267_11K/GpL16-k0 (antibody, human IgG1, kappa)
heavy 1: not shown
heavy 2: not shown
light: B1 light
notes: as for B1
B20: GpH7-A5/GpH7-B3 variant S267_09D/GpL16-k0 (antibody, human IgG1, kappa)
heavy 1: not shown
heavy 2: not shown
light: B1 light
notes: as for B1
B21: GpH7-A5/GpH7-B3 variant K326_07I/GpL16-k0 (antibody, human IgG1, kappa)
heavy 1: not shown
heavy 2: not shown
light: B1 light
notes: as for B1
B22: GpH7-A5/GpH7-B3 variant N325_07I/GpL16-k0 (antibody, human IgG1, kappa)
heavy 1: not shown
heavy 2: not shown
light: B1 light
notes: as for B1
B23: GpH7-A5/GpH7-B3 variant P238_10E/GpL16-k0 (antibody, human IgG1, kappa)
heavy 1: not shown
heavy 2: not shown
light: B1 light
notes: as for B1
B24: GpH7-A5/GpH7-B3 variant S267_12R/GpL16-k0 (antibody, human IgG1, kappa)
heavy 1: not shown
heavy 2: not shown
light: B1 light
notes: as for B1
B25: GpH7-A5/GpH7-B3 variant S267_02A/GpL16-k0 (antibody, human IgG1, kappa)
heavy 1: not shown
heavy 2: not shown
light: B1 light
notes: as for B1
B26: GpH7-A5/GpH7-B3 variant V266_04F/GpL16-k0 (antibody, human IgG1, kappa)
heavy 1: not shown
heavy 2: not shown
light: B1 light
notes: as for B1
B27: GpH7-A5/GpH7-B3 variant P238_09D/GpL16-k0 (antibody, human IgG1, kappa)
heavy 1: not shown
heavy 2: not shown
light: B1 light
notes: as for B1
B28: GpH7-A5/GpH7-B3 variant L328_09D/GpL16-k0 (antibody, human IgG1, kappa)
heavy 1: not shown
heavy 2: not shown
light: B1 light
notes: as for B1
B29: GpH7-A5/GpH7-B3 variant H268_13S/GpL16-k0 (antibody, human IgG1, kappa)
heavy 1: not shown
heavy 2: not shown
light: B1 light
notes: as for B1
B30: GpH7-A5/GpH7-B3 variant V266_05P/GpL16-k0 (antibody, human IgG1, kappa)
heavy 1: not shown
heavy 2: not shown
light: B1 light
notes: as for B1
B31: GpH7-A5/GpH7-B3 variant L328_12R/GpL16-k0 (antibody, human IgG1, kappa)
heavy 1: not shown
heavy 2: not shown
light: B1 light
notes: as for B1
B32: GpH7-A5/GpH7-B3 variant P238_15Y/GpL16-k0 (antibody, human IgG1, kappa)
heavy 1: not shown
heavy 2: not shown
light: B1 light
notes: as for B1
B33: GpH7-A5/GpH7-B3 variant S239_09D/GpL16-k0 (antibody, human IgG1, kappa)
heavy 1: not shown
heavy 2: not shown
light: B1 light
notes: as for B1
B34: GpH7-A5/GpH7-B3 variant N325_20W/GpL16-k0 (antibody, human IgG1, kappa)
heavy 1: not shown
heavy 2: not shown
light: B1 light
notes: as for B1
B35: GpH7-A5/GpH7-B3 variant S267_06M/GpL16-k0 (antibody, human IgG1, kappa)
heavy 1: not shown
heavy 2: not shown
light: B1 light
notes: as for B1
B36: GpH7-A5/GpH7-B3 variant K326_08L/GpL16-k0 (antibody, human IgG1, kappa)
heavy 1: not shown
heavy 2: not shown
light: B1 light
notes: as for B1
B37: GpH7-A5/GpH7-B3 variant N325_06M/GpL16-k0 (antibody, human IgG1, kappa)
heavy 1: not shown
heavy 2: not shown
light: B1 light
notes: as for B1
B38: GpH7-A5/GpH7-B3 variant S267_10E/GpL16-k0 (antibody, human IgG1, kappa)
heavy 1: not shown
heavy 2: not shown
light: B1 light
notes: as for B1
B39: GpH7-A5/GpH7-B3 variant H268_10E/GpL16-k0 (antibody, human IgG1, kappa)
heavy 1: not shown
heavy 2: not shown
light: B1 light
notes: as for B1
B40: GpH7-A5/GpH7-B3 variant P271_01G/GpL16-k0 (antibody, human IgG1, kappa)
heavy 1: not shown
heavy 2: not shown
light: B1 light
notes: as for B1
B41: GpH7-A5/GpH7-B3 variant S267_16H/GpL16-k0 (antibody, human IgG1, kappa)
heavy 1: not shown
heavy 2: not shown
light: B1 light
notes: as for B1

molecular target: T1, FcγRIIa R; experiment: SPR, relative to GpH7-A5/GpH7-B3/GpL16-k0

He/Con_2aR [control = 100]	Binder
149	B1
135	B2
148	B3
150	B4
174	B5
138	B6
37.8	B7
148	B8
140	B9
144	B10
120	B11
105	B12
81.9	B13
2.5	B14
111	B15
135	B16
116	B17
124	B18
3.6	B19
173	B20
147	B21

He/Con_2aR [control = 100]	Binder
133	B22
151	B23
3.6	B24
155	B25
44.4	B26
148	B27
119	B28
127	B29
-2.9	B30
5	B31
156	B32
137	B33
134	B34
122	B35
137	B36
152	B37
175	B38
148	B39
144	B40
50.6	B41

molecular target: T2, FcγRIIb; experiment: SPR, relative to GpH7-A5/GpH7-B3/GpL16-k0

He/Con_2b [control = 100]	Binder
239	B1
218	B2
193	B3
251	B4
312	B5
219	B6
48	B7
200	B8
204	B9
197	B10
152	B11
172	B12
104	B13
7.5	B14
192	B15
181	B16
192	B17
160	B18
12.2	B19
310	B20
199	B21

He/Con_2b [control = 100]	Binder
171	B22
232	B23
11.3	B24
243	B25
57.6	B26
221	B27
199	B28
160	B29
0.4	B30
9.2	B31
218	B32
206	B33
169	B34
210	B35
177	B36
217	B37
379	B38
230	B39
193	B40
65.9	B41

molecular target: T1, FcγRIIa R; experiment: SPR; He/Con_2aR divided by He/Con_2b (FcγRIIa R over FcγRIIb)

He_2aR/2b [ratio]	Binder
0.62	B1
0.62	B2
0.77	B3
0.6	B4
0.56	B5
0.63	B6
0.79	B7
0.74	B8
0.68	B9
0.73	B10
0.79	B11
0.61	B12
0.78	B13
0.33	B14
0.58	B15
0.75	B16
0.61	B17
0.78	B18
0.3	B19
0.56	B20
0.74	B21

He_2aR/2b [ratio]	Binder
0.78	B22
0.65	B23
0.32	B24
0.64	B25
0.77	B26
0.67	B27
0.6	B28
0.8	B29
-8.33	B30
0.54	B31
0.72	B32
0.66	B33
0.79	B34
0.58	B35
0.77	B36
0.7	B37
0.46	B38
0.64	B39
0.75	B40
0.77	B41
